{"source": "paper PMC5932363", "biological_target": "Proteinase 3 (PR3), purified (UniProt P24158)", "sequence (P24158 28-248)": "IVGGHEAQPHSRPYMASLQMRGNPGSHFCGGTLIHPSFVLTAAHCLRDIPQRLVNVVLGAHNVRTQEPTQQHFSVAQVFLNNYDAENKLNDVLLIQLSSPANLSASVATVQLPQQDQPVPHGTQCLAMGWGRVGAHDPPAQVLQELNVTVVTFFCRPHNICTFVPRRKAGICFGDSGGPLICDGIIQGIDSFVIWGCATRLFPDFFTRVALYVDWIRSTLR", "assay": "SPR; BIAcore 3000; PR3 immobilised on a CM5 chip by amine coupling; C1q, gC1q or cC1q as soluble analytes; 50 mM Tris, 150 mM NaCl, 2 mM Ca2+, 0.005% surfactant P20, pH 7.4; flow 20 µl/min; global fit to a 1:1 Langmuir model; apparent KD from koff/kon"}
{"substance": "globular region of C1q (gC1q) (domain or fragment)", "values": [{"measurement": "Kd", "result": 400, "unit": "nM"}, {"measurement": "koff", "result": 0.0072, "unit": "s⁻¹"}, {"measurement": "kon", "result": 18000, "unit": "M⁻¹ s⁻¹"}]}
